According to the supplement of paper PMC7125110:
± gives the standard error. Fewer inactive variants are shown than the library holds.

B1: glmS ribozyme (parent)
chain: AUAAAAGCGCCAGAACUACAGAAAUGUAGUUGACGAGGAGGAGGUUUAUCGAAUUUUCGGCGGAUGCCUCCAAA

Legend:
Conditions in all cases: with glucosamine-6-phosphate
glucosamine-6-phosphate [1] = variants of: B1; assay: self-cleavage kobs at 640 uM GlcN6P; higher = faster cleavage; RNA array
In short: (§1)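 Glucosamine-6-phosphate (40 μM to 10 mM) in HEPES/KCl/Mg(OAc)2 buffer was flowed over sequenced MiSeq chips, and tiles were imaged over ~14 h. Barcoded ribozyme variants there had been transcribed in situ by E. coli RNA polymerase and were tracked through a hybridised Cy3 probe at 37 °C. One- or two-exponential decay fits to per-tile medians, normalised to baseline and to non-cleaving reference variants, gave kobs. kcat and KM came from weighted Michaelis–Menten fits across concentrations.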

glucosamine-6-phosphate [2] = variants of: B1; assay: self-cleavage kobs at 2500 uM GlcN6P; higher = faster cleavage; RNA array
In short: as §1

glucosamine-6-phosphate [3] = variants of: B1; assay: self-cleavage kobs at 10000 uM GlcN6P; higher = faster cleavage; RNA array
In short: as §1

| Variant | self-cleavage kobs at 640 uM GlcN6P (glucosamine-6-phosphate [1]) [s⁻¹] | self-cleavage kobs at 2500 uM GlcN6P (glucosamine-6-phosphate [2]) [s⁻¹] | self-cleavage kobs at 10000 uM GlcN6P (glucosamine-6-phosphate [3]) [s⁻¹] |
| --- | --- | --- | --- |
| G38U U57A C71G | < 1e-05 | < 1e-05 | – |
| C11A G38A U47C | < 1e-05 | – | – |
| G38C U45C C70A | < 1e-05 | < 1e-05 | – |
| G7A G43U U49G G63C A64U | < 1e-05 | < 1e-05 | – |
| U47C C50A U69G | 5.61e-05 ± 2.5e-05 | 9.43e-05 ± 2.6e-05 | – |
| C10U U47C U55G | < 1e-05 | – | – |
| A6G G40A U54G C67A | < 1e-05 | < 1e-05 | – |
| A42C G43C C70U | < 1e-05 | – | – |
| A6U G9C A52U C67A C70U | < 1e-05 | – | – |
| C8U A14U U57C G59U | < 1e-05 | – | – |
| C50A G51U U55C | < 1e-05 | < 1e-05 | – |
| G7C A12U A15C | < 1e-05 | – | – |
| C8A A33U U55G | < 1e-05 | – | < 1e-05 |
| G41C U46G U54C C70G | 0.00305 ± 0.00089 | 0.00908 ± 0.0027 | – |
| A33C U47C U65G | < 1e-05 | < 1e-05 | – |
| U31C G60U C67G | < 1e-05 | < 1e-05 | – |
| C8U G66C C71G | < 1e-05 | – | – |

| Variant | self-cleavage kobs at 640 uM GlcN6P (glucosamine-6-phosphate [1]) [s⁻¹] | self-cleavage kobs at 2500 uM GlcN6P (glucosamine-6-phosphate [2]) [s⁻¹] | self-cleavage kobs at 10000 uM GlcN6P (glucosamine-6-phosphate [3]) [s⁻¹] |
| --- | --- | --- | --- |
| C11G G41C U45G | < 1e-05 | – | – |
| A64C U65C | < 1e-05 | – | < 1e-05 |
| A12C U54C C71U | 0.00422 ± 0.0017 | 0.0234 ± 0.0081 | – |
| A36U A48C C67G | < 1e-05 | < 1e-05 | – |
| A14C U65A C70U | 0.000125 ± 3.2e-05 | – | – |
| A33C G38C G51C A64C | < 1e-05 | – | < 1e-05 |
| C11G G13C A15G G43U G63C | < 1e-05 | < 1e-05 | – |
| G7C U56G C67U | < 1e-05 | – | – |
| A6G G9A A39C A42U U46A A53U C68U C71G | < 1e-05 | – | – |
| G9A C10G G29U G62A | < 1e-05 | – | – |
| G37A G41A A48G | < 1e-05 | < 1e-05 | – |
| G13A G40A G62A | < 1e-05 | < 1e-05 | – |
| G9C A15G G38C G60A | < 1e-05 | < 1e-05 | – |
| C8U G13U A14U | < 1e-05 | – | – |
| C34A U49C C58A | < 1e-05 | – | – |
| G29C G37U U46A | < 1e-05 | < 1e-05 | < 1e-05 |
